The source of these data is patent publication JP2007175055A (dated 2007).

Assay [1] has as its target T1, human CD4 on the cell surface (human, UniProt P01730 26-458).
T1 construct: whole, on cells; also called cell surface CD4; CD4+ cells
As to the kind of experiment: FACS: H9 cells pre-incubated with 10 ug r-gp120; competitors Leu3A and OKT4A.

Assay [2] has as its target T2, recombinant soluble human CD4 (AA1-AA375, V1-V4) (human, UniProt P01730 26-400).
T2 construct: range 1-375; also called rsCD4
In words: affinity column of human rsCD4 on Affi-Gel 10.

Assay [3] has as its target human CD4 V1V2 polypeptide (AA1-AA180) (human, UniProt P01730 26-205). In words: RIA: CD4-V1V2 (5 ug/ml) competing with 125I-rsCD4 for immobilised antibody.
Assay [4] has as its target T3, rhesus monkey CD4 on circulating and lymph node CD4+ cells (rhesus monkey, UniProt P16003 26-458).
T3 construct: whole, on cells; also called アカゲザルCD4+細胞
In words: FACS of rhesus monkey blood cells, indirect staining.

The target in assay [5] is T4, human CD4 V1 polypeptide (AA1-AA113 and/or AA1-AA111) (human, UniProt P01730 26-138).
T4 construct: range 1-113; also called CD4 VI
As to the kind of experiment: RIA: CD4-V1 competing with 125I-rsCD4 for immobilised antibody.

T3 sequence (P16003 26-458): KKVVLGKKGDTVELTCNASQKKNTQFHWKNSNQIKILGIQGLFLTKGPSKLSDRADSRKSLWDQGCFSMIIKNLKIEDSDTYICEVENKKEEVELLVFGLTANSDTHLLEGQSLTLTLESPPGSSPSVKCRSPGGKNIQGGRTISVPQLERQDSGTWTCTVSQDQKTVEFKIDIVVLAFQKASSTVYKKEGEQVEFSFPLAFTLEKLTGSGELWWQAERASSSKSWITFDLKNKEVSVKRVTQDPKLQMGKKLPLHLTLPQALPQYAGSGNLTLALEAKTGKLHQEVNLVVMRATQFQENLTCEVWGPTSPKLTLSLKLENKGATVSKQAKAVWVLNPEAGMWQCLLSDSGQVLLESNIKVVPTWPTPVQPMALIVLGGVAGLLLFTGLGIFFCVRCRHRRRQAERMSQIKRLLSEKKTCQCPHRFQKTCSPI

B1: soluble recombinant HIV gp120 (baculovirus) (ligand)
chain: not shown
notes: also called r-gp120; HIV r-gp120
For B1, the binding result in assay [1] and in assay [2] was “binds” in each case.

B2: mouse monoclonal antibody 5A8 (antibody, V domains shown)
VH: EVKLQESGPELVKPGASVKMSCKASGYTFTSYVIHWVRQKPGQGLDWIGYINPYNDGTDYDEKFKGKATLTSDKSSSTAYMELSSLTSEDSAVYYCAREKDNYATGAWFAYWGQGTTVTVSS
VL: DIVMTQSPSSLAVSVGEKVTMICKSSQSLLYSTNQKNYLAWYQQKPGQSPKLLIYWASTRESGVPDRFTGSGSGTDFTLTISSVKAEDLAVYYCQQYYSYRTFGGGTKLEIK
notes: also called 5A8-2F6; hybridoma ATCC HB 10881 (IVI-10257)
Consider B2, for which the figures for the binding result in assay [3], in assay [4] and in assay [5] were “binds”, “binds” and “no binding (tested: 5μg/ml)”, respectively.
